Results on two molecules are retold here after patent US20150344570A1 (published 2015).

Experiment [1] concerns the target T1, FcγRIIa R extracellular domain with C-terminal His tag (human, UniProt P12318 34-217).
T1 construct: extracellular domain; Soluble receptor, R131 allotype; also called FcgRIIa R; FcgRIIaR; not shown: His tag at the C terminus
T1 sequence (looked up): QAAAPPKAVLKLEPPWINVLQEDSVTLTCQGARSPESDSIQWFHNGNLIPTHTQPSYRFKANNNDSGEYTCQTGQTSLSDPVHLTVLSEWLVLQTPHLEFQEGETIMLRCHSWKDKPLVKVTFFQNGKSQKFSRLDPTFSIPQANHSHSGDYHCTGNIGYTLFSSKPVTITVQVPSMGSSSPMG
The experiment can be described thus: SPR (Biacore); ratio KD for FcγRIIb / KD for FcγRIIa R. The procedure: (§1) These antibodies were assessed for the binding activity to each FcγR according to the method described in Reference Example 2.
(§2) Analysis of interaction between objective antibody and the FcγR was carried out using Biacore T100 (GE Healthcare). HBS-EP+ (GE Healthcare) was used as the running buffer, and the measurement temperature was set to 25° C. Chips produced by immobilizing the antigen peptide by the amine coupling method to a Series S Sencor Chip CM5 (GE Healthcare), or alternatively, chips produced by allowing preliminarily biotinylated antigen peptides to interact with and immobilize onto a Series S Sensor Chip SA (certified) (GE Healthcare) were used. Antibodies of interest were captured onto an antigen peptide-immobilized chip, and allowed to interact to each FcγR diluted with running buffer. To regenerate and repeatedly use the chip, the antibodies captured on the chip were washed off by reacting 10 mM glycine-HCl, pH 1.5.
For orientation: SPR reads the build-up and loss of mass on a sensor chip optically.

Experiment [2] deals with T2, FcγRIIa H extracellular domain with C-terminal His tag (human, UniProt P12318 34-217).
T2 construct: extracellular domain; Soluble receptor, H131 allotype; also called FcgRIIa H; FcgRIIaH; not shown: His tag at the C terminus
T2 sequence (looked up): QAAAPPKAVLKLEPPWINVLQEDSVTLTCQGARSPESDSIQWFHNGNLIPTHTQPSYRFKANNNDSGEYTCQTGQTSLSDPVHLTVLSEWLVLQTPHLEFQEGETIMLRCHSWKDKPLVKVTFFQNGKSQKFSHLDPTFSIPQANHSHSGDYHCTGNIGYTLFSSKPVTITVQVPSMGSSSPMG
The experiment can be described thus: SPR (Biacore); ratio KD for FcγRIIb / KD for FcγRIIa H. The procedure:
as §1, §2

The target in experiment [3] is T3, FcgRIIb (human, UniProt P31994 43-217).
T3 construct: extracellular domain; also called FcγRIIb; 2b; not shown: His tag at the C terminus
T3 sequence (looked up): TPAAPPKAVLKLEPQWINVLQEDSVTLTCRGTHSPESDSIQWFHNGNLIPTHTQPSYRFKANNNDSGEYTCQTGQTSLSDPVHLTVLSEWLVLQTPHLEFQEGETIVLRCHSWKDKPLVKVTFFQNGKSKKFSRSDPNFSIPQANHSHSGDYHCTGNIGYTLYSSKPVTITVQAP
As to the kind of experiment: SPR (Biacore), antibody captured, FcgR extracellular domain as analyte. The procedure:
(§3) Next, the amino acid at position 330 was examined. The A330M alteration has been introduced into H240-Hl076 of H240-Kn125/H240-Hl076/L73-k0. […] L73-k0 was used as the common antibody L chain. Binding of the produced variants to FcgRIa, FcgRIIaR, FcgRIIaH, FcgRIIb, FcgRIIIaF, and FcgRIIIaV was measured according to the method of Reference Example 8.
(§4) Analysis of interaction between objective antibody and the FcγR was carried out using Biacore T100 (GE Healthcare), Biacore T200, Biacore A100, and Biacore 4000. HBS-EP+ (GE Healthcare) was used as the running buffer, and the measurement temperature was set to 25° C. Chips produced by immobilizing the antigen peptide by the amine coupling method to a Series S sensor Chip CM5 (GE Healthcare), chips produced by allowing preliminarily biotinylated antigen peptides to interact with and immobilize onto a Series S Sensor Chip SA (certified) (GE Healthcare), chips produced by immobilizing Protein L (ACTIGEN, BioVision) to Series S Sencor Chip CM5 (GE Healthcare), or chips produced by immobilizing Protein A/G (Thermo Scientific) to Series S Sencor Chip CM5 (GE Healthcare) were used. Antibodies of interest were captured onto these chips, and allowed to interact to each FcγR diluted with running buffer. To regenerate and repeatedly use the chip, the antibodies captured onto the chip were washed off by reacting 10 mM glycine-HCl, pH 1.5.

Experiment [4] addresses T4, FcgRIIIaV (human, UniProt P08637 17-208).
T4 construct: extracellular domain; Polymorphic site after J. Clin. Invest; also called FcγRIIIa V; 3aV; not shown: His tag at the C terminus
The experiment is described as above. The procedure:
as §3, §4

Experiment [5] addresses T5, FcgRIIaR (human, UniProt P12318 34-217).
T5 construct: extracellular domain; also called FcγRIIa R; FcγRIIa type R; not shown: His tag at the C terminus
T5 sequence (looked up): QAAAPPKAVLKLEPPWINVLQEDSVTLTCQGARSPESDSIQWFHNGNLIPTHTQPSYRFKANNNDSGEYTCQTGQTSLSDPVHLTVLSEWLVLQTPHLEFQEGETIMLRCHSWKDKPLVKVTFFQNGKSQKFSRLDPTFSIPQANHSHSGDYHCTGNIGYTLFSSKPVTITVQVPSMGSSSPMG
Described as above. The procedure: as §3, §4

Experiment [6] deals with T6, FcgRIIaH (human, UniProt P12318 34-217).
T6 construct: extracellular domain; also called FcγRIIa H; FcγRIIa type H; not shown: His tag at the C terminus
T6 sequence (looked up): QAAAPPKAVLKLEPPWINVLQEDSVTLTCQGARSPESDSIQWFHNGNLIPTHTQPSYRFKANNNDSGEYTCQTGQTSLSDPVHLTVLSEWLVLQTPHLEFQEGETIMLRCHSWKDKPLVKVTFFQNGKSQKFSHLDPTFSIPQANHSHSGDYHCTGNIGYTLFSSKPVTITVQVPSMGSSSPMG
Described as above. The procedure:
as §3, §4

Experiment [7] concerns the target T7, FcgRIIIaF (human, UniProt P08637 17-208).
T7 construct: extracellular domain; Polymorphic site after J. Clin. Invest; also called FcγRIIIa F; 3aF; not shown: His tag at the C terminus
Described as above. The procedure:
as §3, §4

Experiment [8] addresses T8, FcgRIa (human, UniProt P12314 16-292).
T8 construct: extracellular domain; also called FcγRIa; FcγRI; not shown: His tag at the C terminus
The experiment is described as above. The procedure: as §3, §4

In experiment [9] the target is T3, FcgRIIb. As to the kind of experiment: SPR (Biacore); KD of H240-Kn033/H240-Hl033/L73-k0 divided by KD of the variant. The procedure:
as §3, §4

The target in experiment [10] is T4, FcgRIIIaV. Described as above. The procedure:
as §3, §4

In experiment [11] the target is T5, FcgRIIaR. The description is as above. The procedure:
as §3, §4

Experiment [12] has as its target T6, FcgRIIaH. The description is as above. The procedure: as §3, §4
Experiment [13] concerns the target T7, FcgRIIIaF. The experiment is described as above. The procedure:
as §3, §4

T7 sequence (P08637 17-208): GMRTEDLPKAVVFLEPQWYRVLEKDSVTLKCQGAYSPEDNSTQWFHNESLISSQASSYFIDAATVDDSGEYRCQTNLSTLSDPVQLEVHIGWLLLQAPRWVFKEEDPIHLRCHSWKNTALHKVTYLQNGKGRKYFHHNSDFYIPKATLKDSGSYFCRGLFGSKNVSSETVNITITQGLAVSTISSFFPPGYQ
T4 sequence (P08637 17-208 F176V limits assumed): as the sequence (P08637 17-208) above, with F160V counted along it
T8 sequence (P12314 16-292): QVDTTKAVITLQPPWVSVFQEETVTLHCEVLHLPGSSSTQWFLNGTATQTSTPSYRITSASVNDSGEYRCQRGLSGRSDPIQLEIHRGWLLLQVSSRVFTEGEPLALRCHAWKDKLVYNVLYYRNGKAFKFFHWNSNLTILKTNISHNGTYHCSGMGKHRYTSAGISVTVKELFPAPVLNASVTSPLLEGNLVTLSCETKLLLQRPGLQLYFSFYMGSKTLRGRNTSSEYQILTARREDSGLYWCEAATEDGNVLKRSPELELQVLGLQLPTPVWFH

B1: GpH7-Kn056/GpH7-Hl055/GpL16-k0 (antibody, human IgG1, kappa)
heavy 1: QVQLVQSGAEVKKPGASVTVSCKASGYTFTDYEMHWIRQPPGEGLEWIGAIDPKTGDTAYSESFQDRVTLTADKSTSTAYMELSSLTSEDTAVYYCTRFYSYTYWGQGTLVTVSSASTKGPSVFPLAPSSKSTSGGTAALGCLVKDYFPEPVTVSWNSGALTSGVHTFPAVLQSSGLYSLSSVVTVPSSSLGTQTYICNVNHKPSNTKVDKKVEPKSCDKTHTCPPCPAPEYYAGPSVFLFPPKPKDTLMISRTPEVTCVVVDVSDEDPEVKFNWYVDGVEVHNAKTKPREELYNATYRVVSVLTVLHQDWLNGKEYKCKVSNKALPAPIEKTISKAKGQPREPQVCTLPPSRDELTKNQVSLWCLVKGFYPSDIAVEWESNGQPENNYKTTPPVLDSDGSFFLYSKLTVDKSRWQQGNVFSCSVMHEALHNHYTQKSLSLSP
heavy 2: QVQLVQSGAEVKKPGASVTVSCKASGYTFTDYEMHWIRQPPGEGLEWIGAIDPKTGDTAYSESFQDRVTLTADKSTSTAYMELSSLTSEDTAVYYCTRFYSYTYWGQGTLVTVSSASTKGPSVFPLAPSSKSTSGGTAALGCLVKDYFPEPVTVSWNSGALTSGVHTFPAVLQSSGLYSLSSVVTVPSSSLGTQTYICNVNHKPSNTKVDKKVEPKSCDKTHTCPPCPAPELLAGPDVFLFPPKPKDTLMISRTPEVTCVVVDVSHEDPEVKFNWYVDGVEVHNAKTKPREELYNSTYRVVSVLTVLHQDWLNGKEYKCKVSNKALPMPEEKTISKAKGQPREPQVYTLPPSRCELTKNQVSLSCAVKGFYPSDIAVEWESNGQPENNYKTTPPVLDSDGSFFLVSKLTVDKSRWQQGNVFSCSVMHEALHNHYTQKSLSLSP
light: DIVMTQSPLSLPVTPGEPASISCQASESLVHSNRNTYLHWYLQKPGQSPQLLIYKVSNRFSGVPDRFSGSGSGTDFTLKISRVEAEDVGVYYCSQNTHVPPTFGQGTKVEIERTVAAPSVFIFPPSDEQLKSGTASVVCLLNNFYPREAKVQWKVDNALQSGNSQESVTEQDSKDSTYSLSSTLTLSKADYEKHKVYACEVTHQGLSSPVTKSFNRGEC
notes: Heterodimerized anti-glypican-3 IgG1, knobs-into-holes; also called Kn056/Hl055
With B1, the A/I ratio turned out to be 16 in [1] and 8.7 in experiment [2].

B2: H240-Kn125/H240-Hl076/L73-k0 (antibody, human IgG1, kappa)
heavy 1: QDQLVQSGAEVKKPGASVKVSCKASGFNIKDTYIQWVRQAPGQGLEWMGRIDPLRKQTKYREKFEGRVTITADTSTNTAYMELSSLRSEDTAVYYCVRSGREFDYWGQGTLVTVSSASTKGPSVFPLAPSSKSTSGGTAALGCLVKDYFPEPVTVSWNSGALTSGVHTFPAVLQSSGLYSLSSVVTVPSSSLGTQTYICNVNHKPSNTKVDKKVEPKSCDKTHTCPPCPAPEYQWGPMVFLFPPKPKDTLMISRTPEVTCVVVDVSDEEPEVKFNWYVDGVEVHNAKTKPREEQYNATYRVVSVLTVLHQDWLNGKEYKCKVSNKALPAPIEKTISKAKGQPREPQVCTLPPSRDELTKNQVSLWCLVKGFYPSDIAVEWESNGQPENNYKTTPPVLDSDGSFFLYSKLTVDKSRWQQGNVFSCSVMHEALHNHYTQKSLSLSP
heavy 2: QDQLVQSGAEVKKPGASVKVSCKASGFNIKDTYIQWVRQAPGQGLEWMGRIDPLRKQTKYREKFEGRVTITADTSTNTAYMELSSLRSEDTAVYYCVRSGREFDYWGQGTLVTVSSASTKGPSVFPLAPSSKSTSGGTAALGCLVKDYFPEPVTVSWNSGALTSGVHTFPAVLQSSGLYSLSSVVTVPSSSLGTQTYICNVNHKPSNTKVDKKVEPKSCDKTHTCPPCPAPELLGGPSVFLFPPKPKDTLMISRTPEVTCVVVDVSHEEPEVKFNWYVDGVEVHNAKTKPREEQYNSTYRVVSVLTVLHQDWLNGKEYKCKVSNDALPMPIEETISKAKGQPREPQVYTLPPSRCELTKNQVSLSCAVKGFYPSDIAVEWESNGQPENNYKTTPPVLDSDGSFFLVSKLTVDKSRWQQGNVFSCSVMHEALHNHYTQKSLSLSP
light: DIQMTQSPSSLSASVGDRVTITCRASQDIHKYIAWYQQKPGQAPRLLIQYTSTLQPGVPSRFSGSGSGTDYTFTISSLQPEDIATYYCLQYEQLRTFGGGTKVEIKRTVAAPSVFIFPPSDEQLKSGTASVVCLLNNFYPREAKVQWKVDNALQSGNSQESVTEQDSKDSTYSLSSTLTLSKADYEKHKVYACEVTHQGLSSPVTKSFNRGEC
notes: Template of the position 330 series
Take B2: the Kd (in general, the constant that tells how readily two partners part at equilibrium) in [3] amounted to 3900 nM; in [4], 0.26 nM; in experiment [5], 420 nM; in [6], 140 nM; in experiment [7] it was 1.3 nM; in [8], 0.066 nM. The “fold 2b” value in experiment [9] is 0.8 fold. In experiment [10], the “fold 3aV” value came out at 185 fold. Besides, the “fold 2aR” value in experiment [11] was determined as 1.8 fold. For the same molecule, the “fold 2aH” value in [12] came to 3.7 fold. In addition, the “fold 3aF” value in experiment [13] worked out at 223 fold.
